Legend:
HT-29 cells = assay: Migration through membrane insert; assay type: cell-based, human; settings: 66 nM antibody, 10 ng/mL VEGF-A or 50 ng/mL VEGF-B, 48 hours, p<0.05, FIG. 23
Experimental: HT-29 cells (2.5×1 10^4) or SW480 cells (1.5×1 10^4) were incubated in medium containing 1% FBS with the anti-VEGFR-1 antibody 18F1 (66 nM) in the upper surface of a 24 well MATRIGEL™ coated (HT-29) or uncoated (SW480) 8.0-μm pore size membrane insert (Becton Dickinson Labware, Bedford, Mass.). The inserts were placed into lower chambers containing 10 ng/mL VEGF-A (R&D Systems) or 50 ng/mL VEGF-B (R&D Systems) for 48 hours. Cells remaining in the top chamber of the inserts were removed with a cotton swab. Cells migrating to the underside of the inserts were stained with Diff-Quik (Harleco, Gibbstown, N.J.) and counted in ten random fields at 100× magnification. Statistical analysis was performed using InStat Statistical Software (V2.03, GraphPad Software, San Diego, Calif.).

mouse VEGFR-I-AP = target: T1, mouse VEGFR-I-AP (Mus musculus, UniProt P35969); assay: Plate-bound receptor binding ELISA (Example 2B); settings: FIG. 32B, 100 ng/well
T1 sequence (P35969 23-759 limits assumed): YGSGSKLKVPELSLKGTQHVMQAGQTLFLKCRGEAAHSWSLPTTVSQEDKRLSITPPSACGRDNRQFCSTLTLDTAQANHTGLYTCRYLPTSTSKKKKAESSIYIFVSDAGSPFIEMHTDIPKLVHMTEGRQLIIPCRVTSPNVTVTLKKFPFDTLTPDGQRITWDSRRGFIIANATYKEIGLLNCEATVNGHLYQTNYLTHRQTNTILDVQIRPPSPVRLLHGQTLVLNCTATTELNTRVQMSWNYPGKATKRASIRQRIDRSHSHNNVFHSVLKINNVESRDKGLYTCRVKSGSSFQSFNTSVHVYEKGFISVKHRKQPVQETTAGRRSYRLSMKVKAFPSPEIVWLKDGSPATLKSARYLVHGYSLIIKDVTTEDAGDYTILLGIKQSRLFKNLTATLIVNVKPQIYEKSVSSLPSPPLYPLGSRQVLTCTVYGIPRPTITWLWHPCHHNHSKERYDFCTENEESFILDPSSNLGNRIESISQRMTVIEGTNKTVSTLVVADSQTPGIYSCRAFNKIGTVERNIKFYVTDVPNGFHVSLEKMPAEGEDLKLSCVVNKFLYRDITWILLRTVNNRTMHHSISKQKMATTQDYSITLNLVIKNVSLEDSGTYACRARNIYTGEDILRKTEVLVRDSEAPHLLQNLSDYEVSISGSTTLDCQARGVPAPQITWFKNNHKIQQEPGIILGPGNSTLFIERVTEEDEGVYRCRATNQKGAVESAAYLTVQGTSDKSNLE
Experimental: (§1) HuVEGFR-I-Fc, mouse VEGFR-I-AP (hnClone Systems) or huVEGFR-2-AP (ImClone Systems) (100 ng/well) was coated on 96 strip-well plates and blocked with 5% milk/PBS. The binding of 18F1 and other anti-human VEGFR-I antibodies or a rat anti-mouse VEGFR-I antibody, MF1 (ImClone Systems, ref. 18), to plate bound VEGFR-I or VEGFR-2 was evaluated as described for the hybridoma supernatant screening above, except that bound antibody was detected with a goat anti-human kappa-HRP antibody (Bio Source International, Camarillo, Calif.) for 18F1 and anti-human VEGFR-2 antibody ICl 1. or a goat anti-rat IgG-HRP antibody (BioSource International) for MF1.

HuVEGFR-I-Fc = target: T2, HuVEGFR-I-Fc (Homo sapiens, UniProt P17948); assay: Plate-bound receptor binding ELISA (Example 2B); settings: FIG. 32A, 100 ng/well
T2 construct: soluble recombinant VEGFR-I Fc (rhuVEGFR-1 Fc) proteins were purchased from (R&D Systems Inc); purchased R&D Systems Inc
T2 sequence (P17948 27-758 limits assumed): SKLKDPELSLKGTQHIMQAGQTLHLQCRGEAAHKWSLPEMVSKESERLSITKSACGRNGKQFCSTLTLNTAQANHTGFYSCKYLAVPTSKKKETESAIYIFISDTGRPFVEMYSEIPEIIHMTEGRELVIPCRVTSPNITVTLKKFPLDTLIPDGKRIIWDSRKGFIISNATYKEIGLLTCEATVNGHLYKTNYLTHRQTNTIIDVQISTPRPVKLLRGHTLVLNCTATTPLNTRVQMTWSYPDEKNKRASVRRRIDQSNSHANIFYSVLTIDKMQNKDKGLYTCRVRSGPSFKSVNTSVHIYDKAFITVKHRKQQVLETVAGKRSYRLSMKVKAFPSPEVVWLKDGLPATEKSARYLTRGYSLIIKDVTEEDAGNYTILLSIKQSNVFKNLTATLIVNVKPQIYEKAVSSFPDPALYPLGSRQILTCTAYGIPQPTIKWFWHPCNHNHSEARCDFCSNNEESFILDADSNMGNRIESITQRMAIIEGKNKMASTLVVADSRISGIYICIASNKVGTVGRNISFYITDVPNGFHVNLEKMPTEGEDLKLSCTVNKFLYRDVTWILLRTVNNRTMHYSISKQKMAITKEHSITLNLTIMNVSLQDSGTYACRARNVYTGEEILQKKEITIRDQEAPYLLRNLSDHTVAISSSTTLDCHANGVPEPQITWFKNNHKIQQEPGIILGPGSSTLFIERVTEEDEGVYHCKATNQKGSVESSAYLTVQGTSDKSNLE
Experimental: as §1

huVEGFR-2-AP = huVEGFR-2-AP (Homo sapiens, UniProt P35968); assay: Plate-bound receptor binding ELISA (Example 2B); settings: FIG. 32C, 100 ng/well
Sequence of huVEGFR-2-AP (P35968 20-764 limits assumed): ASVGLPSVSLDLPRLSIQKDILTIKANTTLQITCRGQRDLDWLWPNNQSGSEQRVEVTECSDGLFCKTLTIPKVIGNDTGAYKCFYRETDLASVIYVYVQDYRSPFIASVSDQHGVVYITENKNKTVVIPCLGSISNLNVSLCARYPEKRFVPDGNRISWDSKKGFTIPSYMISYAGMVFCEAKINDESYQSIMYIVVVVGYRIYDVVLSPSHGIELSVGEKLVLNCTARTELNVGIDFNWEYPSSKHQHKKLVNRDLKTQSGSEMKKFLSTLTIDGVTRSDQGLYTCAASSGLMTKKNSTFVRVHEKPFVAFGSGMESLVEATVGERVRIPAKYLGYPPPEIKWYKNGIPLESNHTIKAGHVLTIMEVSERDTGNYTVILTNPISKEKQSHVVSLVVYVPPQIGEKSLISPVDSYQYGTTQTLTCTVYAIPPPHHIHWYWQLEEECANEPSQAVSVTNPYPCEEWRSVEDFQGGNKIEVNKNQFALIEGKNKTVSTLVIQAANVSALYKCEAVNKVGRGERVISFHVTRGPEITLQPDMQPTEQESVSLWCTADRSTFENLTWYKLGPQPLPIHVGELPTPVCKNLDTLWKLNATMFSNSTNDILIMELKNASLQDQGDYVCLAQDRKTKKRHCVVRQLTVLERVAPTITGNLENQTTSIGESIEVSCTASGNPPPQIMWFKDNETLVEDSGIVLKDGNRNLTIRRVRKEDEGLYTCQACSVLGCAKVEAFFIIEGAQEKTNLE
Experimental: as §1

[1] = target: T3, DU4475 human breast carcinoma cells (Homo sapiens, UniProt P17948); assay: Flow cytometry analysis, DU4475 cells; assay type: binding; settings: FIG. 8B
T3 construct: host or cells: DU4475 human breast carcinoma cells
T3 sequence (P17948 27-1338): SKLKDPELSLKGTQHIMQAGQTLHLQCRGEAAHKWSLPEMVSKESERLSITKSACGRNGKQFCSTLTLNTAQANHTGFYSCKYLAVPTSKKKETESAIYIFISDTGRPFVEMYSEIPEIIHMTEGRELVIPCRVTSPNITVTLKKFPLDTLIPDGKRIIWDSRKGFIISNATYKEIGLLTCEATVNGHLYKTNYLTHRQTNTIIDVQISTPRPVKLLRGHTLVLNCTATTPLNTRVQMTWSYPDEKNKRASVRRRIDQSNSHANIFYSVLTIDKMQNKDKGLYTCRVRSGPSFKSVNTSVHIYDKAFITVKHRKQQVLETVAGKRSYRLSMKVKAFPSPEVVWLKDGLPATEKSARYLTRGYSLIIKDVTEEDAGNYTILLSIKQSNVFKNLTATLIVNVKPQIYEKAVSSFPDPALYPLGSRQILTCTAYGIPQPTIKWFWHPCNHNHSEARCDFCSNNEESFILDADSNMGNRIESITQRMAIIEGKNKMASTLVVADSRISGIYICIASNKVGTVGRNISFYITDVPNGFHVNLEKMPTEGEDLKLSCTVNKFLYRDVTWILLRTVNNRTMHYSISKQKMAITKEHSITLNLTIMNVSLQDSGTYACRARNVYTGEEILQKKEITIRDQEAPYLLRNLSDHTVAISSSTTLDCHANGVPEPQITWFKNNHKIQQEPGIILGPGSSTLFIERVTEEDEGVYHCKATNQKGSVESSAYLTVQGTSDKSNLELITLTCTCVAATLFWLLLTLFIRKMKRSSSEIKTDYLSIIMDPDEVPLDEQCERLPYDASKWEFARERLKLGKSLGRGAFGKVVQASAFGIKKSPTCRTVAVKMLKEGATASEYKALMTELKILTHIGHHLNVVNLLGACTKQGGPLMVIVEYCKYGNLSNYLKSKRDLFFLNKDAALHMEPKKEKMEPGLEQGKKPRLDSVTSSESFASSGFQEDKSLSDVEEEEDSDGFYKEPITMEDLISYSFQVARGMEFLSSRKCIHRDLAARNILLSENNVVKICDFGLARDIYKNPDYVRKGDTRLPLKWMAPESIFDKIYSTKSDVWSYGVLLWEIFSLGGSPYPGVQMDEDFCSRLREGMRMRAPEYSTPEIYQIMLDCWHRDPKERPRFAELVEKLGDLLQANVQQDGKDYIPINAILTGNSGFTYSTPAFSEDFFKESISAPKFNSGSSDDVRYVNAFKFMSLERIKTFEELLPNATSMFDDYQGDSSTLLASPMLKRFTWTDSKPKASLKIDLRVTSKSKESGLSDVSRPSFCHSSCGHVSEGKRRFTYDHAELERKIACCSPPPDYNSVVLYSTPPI
Experimental: Aliquots of 10^6PAE-VEGFR-I cells were harvested from subconfluent cultures and incubated with anti-VEGFR-I antibody clones 6F9, 13G12, F11, and 18F1 in PBS with 1% bovine serum albumin (BSA) and 0.02% sodium azide (staining buffer) for one hour on ice. Aliquots of 10^6DU4475 human breast carcinoma cells were harvested from subconfluent cultures and incubated with anti-VEGFR-1 antibody clone 18F1 in PBS with 1% bovine serum albumin (BSA) and 0.02% sodium azide (staining buffer) for one hour on ice. A matched IgG isotype (Jackson ImmunoResearch, West Grove, Pa.) was used as a negative control. Cells were washed twice with flow buffer and then incubated with a fluorescein isothiocyanate (FITC)-labeled goat anti-human IgG antibody (BioSource International, Camarillo, Calif.) in staining buffer for 30 minutes on ice. Cells were washed as above and analyzed on an Epics XL flow cytometer (Beckman-Coulter, Hialeah, Fla.). Dead cells and debris were eliminated from the analysis on the basis of forward and sideways light scatter. The mean fluorescent intensity units (MFRJ) were calculated as the mean log fluorescence multiplied by the percentage of positive population.

reactivity with mouse VEGFR-I (mouse VEGFR-I-AP): no cross reactivity
reactivity with human VEGFR-I (HuVEGFR-I-Fc): specific reactivity
reactivity with human VEGFR-2 (huVEGFR-2-AP): no cross reactivity
binding reactivity with DU4475 human breast carcinoma [1]: binding reactivity
Substance: 18F1: human anti-VEGFR-1 monoclonal antibody clone; VL SEQ ID NO: 16, VH SEQ ID NO: 20 [Clone 18F1]
VEGFR-I ligand induced migration (HT-29 cells): completely blocked

Source: patent publication US8143025B2, “Antibodies against vascular endothelial growth factor receptor-1” (ImClone LLC, priority 2004, dated 2012)
